For 47 sequences, protease stability score results are on record in the NTF2 design screens of Basanta et al. (2020).

The data set can be described thus: protease stability score; higher = more stable; yeast display proteolysis, trypsin and chymotrypsin.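 Also: log10 excess protease needed over predicted unfolded state with 0 meaning unfolded.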
In turn, “DDEAVRAMKRWMDALKTGDPDHLKNNIDPNANIDVGDKRVHGREQIMTMVEKELHEIKITITSINFEDHGDKAVVIINYIRDHNGRPQSNRATLEAEVHNGRIKELKMKDDK” yielded a protease stability score of 0.468.
“DDEAVRQIQTMVRNQNTGDPDKVAEQMDPNVQVDYGDTNLQGREHVHHWLEELKRQARFELTSVKAESQGDNIHVQVDRKVNVNGQPRRDEMHFEVRVHNGRIRSVDIQFDPDKYRQIMS”: the protease stability score was -0.28.
The same measure for “DDEDADKAQRILETGNPDEMDKLLDKDVRVVVGDKEYKGREQVSEFFRRLLEQVDTITFLSVEIHNGTVQARVLVNVNGHNVDVVFQFVVHNGKLKHAKVEARNEEEQKKLDRALS”: 1.55.
With “DDEDADRMVKLIRTNDPETFARQMDPNARVEVGDKKVHGREEALKLLSELYNQADHFQVKSISRHNGRVTVDAILVVNGRTMRARIEVVVHNGRVKSARVKFTNPEDQKQMRRNVQ”, the protease stability score was -0.185.
The sequence “DDEDAHRVADDANKALERGDERRLKELFDKDVRLHYGDKHVRGREEFEDWVQEWLRTVDKIRVEDYKVHDGVVRIRIRVDINGKDVSQTIDLDVKNGTIVNVVIKDN” had a protease stability score of 1.43.
Regarding “DDEDAKHLMQVLQNGDEDRFAELVDENAHQTIGDKTIHGRSEFDRIHEKLKKRIDNFRVNDYRIDNGSVNADVSANVNGQKIRFKYQAHVTNGHIKEMRFQATDPRQEDKWHEMQK”, the protease stability score is -0.031.
Under “DDEDAKRWEKFLKLQQEGNDSEMRKLVDENASFDVGNKHYSGMTTMAHELVRHAHDIRLEYKDVKIDVSGEQIYVTMEVTVNINGQPVRYTNVLEVTMHNGKVKTATNRIPEDVEREIRQ” stands 0.034.
The same measure for “DDEDDKRLADEFNTAVKQGDEDQLKNLMDEDATAEIGDKQLTGRENAAKHLVTLARHADHIQVNSVRVHDGRIRIDMRMIFNGQDHHYDIKIEVHNGRIKRMTVRNK”: 1.6; for “DDEDEHKFATRMAEILHTGDPDRFQEQVDENVEARYGDKEYHGDEQAKTAFKHVVERVDTVEIKHMDAKNGKVSVHFVLDYDGEKQHVTLNVELHNGKAQRVEFQTQ”: 0.144.
“DDEDFKKFKELVETGDWSSLRKQADKNVRQRVGDKQIHGKEEFSRLLKHLQDQIDHVEIKHMQDEPNHLRVDVVWNINGVRVRFQYIVELSNGHIKYIKIDVTDENKLTKLQDLLQ” came in with a protease stability score of 0.491.
For “DDEDKAREFQRHLLRLVRTNNEKDLHNMADPNVKVVIGDKVYSGRDDVAKAHAELRRNVDHINLEIKSVSHKNGRMKVEAEVIYDHNGKKDKRTMTAVIDRHNGKNVLVHMNIQ”, the protease stability score stood at 1.65.
“DDEDNKRKAEEFVRLMHTGDEERIKELFDPNVKAVIGDKEYHGRDTVADWARRLREQADHFDVHRMTAQGDRVHVDMFVTHNGRTKRVVIVLKYHNGRVEEIKVQDG” returned a protease stability score of 2.28.
The same measure for “DDEDQKSTAEEIAKALQTGDKDKVTELFDEDARLKIGDTEFHGREQVSRAVHEIKTRVDHMELKDMEFTGDHVRIVYIANVDGHHATFVAHVVLNNGTAKSMSLSVRDERDKESVDK”: 0.276.
For “DDEDQRDQVRRLSKQMQTGDPNKVRQLLDPNAEVHIGDTTVHGREEVMRSQDKLRKRIDHFEMQDMKVDGESVVAHAVFRVDGKDITLEVRARYTNGRVKKMSFNPEAITRIRS”, the protease stability score was 0.127.
In turn, “DDEDRKKADEMLKALKHGDPDRVRELMDPNAKAVYGDKRIRGRDDFVEDMFRKQREIKIDMKIEEFRVNGNHAVFTVDVIEDKDGRPKRFKARVVITLHNGKIIDIKVEEEH” gave a protease stability score of 1.25.
Consider “DDEDVNRHAESISRALERGDEERLLELLDENVTVEYGDKRVHGREEIERFLREFHRHADHIKVDRVKARGNKVRIRAVNDYDGRKVDYVFHFQFENGRVRKVKIEEK”, for which the protease stability score came to 1.29.
Under “DDEDWHRLAERLFTALRTGDWKELLKMMDPNVNINIGDQTYHGRKDLKNWAQHMREEVDHVEIKSIRIQGNKIVLDITYVTNGQRQNVIFVFSIHNGKVKHVHAKTK” stands 1.14; under “DDEEADKIVEELVKAMEHNDEKHFMELVDPNAKVRYGDTEYHGEDQIQTMFREIVEQADTVQVRSYRVENGEARVEANFRVNGRNAIVTMSATFHNGRVQSLRLHARDEEDRNKLDN”, 0.999.
Consider “DDEEAKRVAEEVIKAMQKGDEEHFDRLVDPDVRLNVGDKVLHGRRDLRRWVKEVADKADHVQVDDVKVNNGTAKIRFRIDINGQTEEVIMHIHVTNGEVKSMRVQRT”, for which the protease stability score was 1.43.
The same measure for “DDEEALKVIHHFIEVMMSGDEETARRLADKNVEAHYGDRTYHGSEEAVRALIEWARSVDNMRIDSVTQEGNEVKVHVVAHFDGRRVEVDIVIEAHNGKINFVTINPDDIRRMKQ”: 0.831; for “DDEEARDIIRLMRHGNFDNIVKQMDPNVTLRYGNNTFHGRERAKHAAQRLKTHIDHVHLKDYKVHGDKIVIDMVYNVNGKHYEVRVVMHIHNGRIQKVQWDFRDDRDETDAEKRLS”: 1.28; for “DDEEARHRLSRISKMLEENDPQRFSNQADEDVRVDIGDKEIHGKEEVARQLTEWRKQVDHVRVTSVEVQGDHASVQFRADVNGRHRVLTLYMKWTNGRVKEMHIKEG”: 0.857.
Under “DDEEDHRVARLASTALQTGDPNQFKNLVDEDVKADVGDKTYHGHEQVMEMFKKFVDQVDHIKVKRVEVDGETARVDAEADINGRTKKIVLDVQAHNGHIKRVQMETS” stands 0.39; under “DDEEDKTLNQKAREALTDNDPDQMMNLFDKDANVDVGEKRVHGREQLRRYMQDLHRMVDHVQVDSVKVDGEKLEFKVTLQYNGRRLKVVFRINYHDGRAKNMHIEFTDEKTLKQFEK”, 0.882; under “DDEEHRRILERFVRAFQTGDEDDLRNLADPNAKAQVGDKQVHGMDKFATHIRELVDRIDHIDVKSLTASGNTLHARIKFRVNGHDVTVVMRIQVHNGKLKRIEIDPEVVRQIEG”, 1.22.
The same measure for “DDEEHVEEMMRRQQNNYKHGDFEELARQFDPNATVNVGDKTYHGREQIRDWYRKRKEDVDSMDLQVQHFSVDNGRIRIQATERQHFNGQDDSTHFQAEARKHGDKAKLKHFRQQ”: -0.052; for “DDEEIKRLVKKAAHAFVDNDPDQFIRLLRDDVRARYGDKEVRGKESIKKQLQHWIHRIDHVEVKSFRAHGNSAEAHIVAIINGRTFDVHMDITFDNGRAHTVVFDVRSEEEFKEAMT”: 1.49.
“DDEEKHKLADEVLHILRTGDHDSMARLADENAKAEIGDSRFHGRDHIRKLVKEFRDTADHIRVIDYRVKGDKIVLRMEFVFNGKTSEVNVVMRFHNGRIKDIEVDPTQVRQMEK”: the protease stability score came to 1.03.
Under “DDEEKKELADEIAQVIRTGDPKRMVEMVDENATAQVGDQKVHGRENIDKMMQNIRRTADHIRIEHVQVHGEEIRIKAKFHINGHTTTWVFSAEVHNGRIQRASLDRR” stands 1; under “DDEELKRQAEEFLKNVKTGNHQELVKQMDPNVKVDVGDKRLQGRETAAHWFVKLVEQVDDFHVQTFDVHGETLEMHFVMEINGHRLQMVLRAEVHNGHIQEMSIDYRDPDRLRKVLS”, 0.392; under “DDEELQELVKVIQDNDKDRWRENIDKDARVRYGDKQWEGRNEVDKLMRELLEKADHIQFNSIHVQGNSIVVDVNINVNGKELDVIIEMEVRDGRIKHVKFQWRNEELHRIMDEILS”, 0.879.
Sequence “DDEEMTQLLRRILKALEKNDEDLYNQNFDEDVKINVGDKRYNGREDASKLMKTWNKQIDHFQVNDYTVSGEQLEMNITFQVDGRNVSFNVTATAKNGRVKEQTFDPSAMRKARS” registered a protease stability score of -0.077.
On to “DDEENKKINEQLKTGDPQTFVDQADENARFRIGDKDFQGREDAKKIADLRKNRVDHIRYREVHFEGDKFVLDAVATFNGRRIKFVVHVTFHNGRLKYYRIKVTNEEVRRQLDELNS”, for which the protease stability score came out at 0.8.
The same measure for “DDEEQKERAEEIIKAIQTGDPQQFNRQADPNVEVKIGDTNVHGRENAARNIAERVQRADHIQVETMDVDGNNVVIDMVIQHNGRTKRFIVTLHFQNGRVKKMSIEDS”: 0.459; for “DDEEQRKLAKEFIDLLRTGDEEHIAHQADKDVTFQIGDKRYTGQEELLKYMKHLVDRVDHIEVEEVDVRGNKVNVTVVVRYNGKRVTLNFDLEFSNGRLIHMSVDPDQQRQLDG”: 1.18; for “DDEERAEQFFRDIVEAIRTNDEERLRHLFDENAHAQVGDKTLHGREQIVKEIVSMAQSADHVSFQLRDLSVDGETITFYFKVQYTRNGRQTSKDVIIVARQSGDKLSVKTEVDS”: 1.4.
As for “DDEERAHEIFKKYQHVLKSNDEDKDRELMDPNARLHIGDKQYHGREQVTKYWHEVLTHADHLEANLKDFRVKGESINIVYTFRQNEDGRDSQVIIEMVMKRQGDHYTVTDNTQK”, the protease stability score is -0.044.
“DDEERHKDAQKAMHLYQRGNPDEMDRLMDPNVKVRVGDETYHGREQANRAFKKIRDRVDHINVKSVSVHGNRINIVAEVNINGRNDILRVIIDYHNGRARRVIITHK” had a protease stability score of 0.204.
The same measure for “DDEERRKLADDLIKILQTGSSNDVRKLVDPNAKAHYGEKDFHGERELAKFMKEIADNVDHIEIETMEVHGDRVKIVMVIVHNGKQRRFVMVLVVHNGRIKKASQTSQ”: 1.46; for “DDEESEKFAEDAMRILQTGDEEKFVRQADPNARVVYGEKTVHGREEAKKEVKTFRDRVDKIDVHHVEVTNGKAFLDATFRFDGRDRHYVVEIVRHNGRIKQMVMKKK”: -0.166.
Consider “DDEETAKRHQREWQKNLEFNDEKSIQELVDPNARWQIGDKEVHGREEWARQLRRLREDVDHVQIHVKHVEVSNGQYNLNILIKYNINGETHKIRLVYVAQKNNGRVLVRSVEHK”, for which the protease stability score stood at 0.655.
“DDEFLKKVVEVIRHGDEERLVRNFDENARMRIGDKVFHGREEIKKALHRIREHADHIDVESVDQQGDTLDADVFIEVNGKNWVFKLKVTVHNGRIKEVSWHVRDEDADNIMKEIMS” yielded a protease stability score of 1.8.
The same measure for “DDEHANSMADQLQKAFETGDEDQIRRLMDKDVSINYGDKRIKGSRELAHWVATLRRQVDSIEYKSIHVKGDKVDIDVVVNVNGRNARFTLVARFSNGKFKELRVDPENMKRLKS”: 1.47; for “DDEHFDHLRKVLKTGDFERLNQLMDPNASADIGDKRYHGRESLEEMFRKLHTQIDHIEFKSMDLQGNKLKYTLVMTFNGREVTVTVVVEVQNGHIKRISIQARNESDREKLKHALD”: 1.46; for “DDEHIKEFLQVVRRGDPDKILKMIDPNAHLQVGDKDLHGRDAVKKAQDKLETTVDHFEVEEVHFQGDNVVVTYLLNVNGKSITVQLVANIEDGRIKSMRIEARSEEDHKILNEQQG”: 0.693.
Under “DDEHVRRLAEQLFKAMQSGDPDTVESLFDKNARVQIGDKSVSGHEDISKIFHDNWKRVDEFQLRTYDAHNGRVQLRFELHINGRRADITLSIEFRNGKIQEAVFEFRDESVRQQFRT” stands 1.29.
In turn, “DDEIERTMKNLMEAFSEGDPDKFRRNADPNAKMNVGDKSFHGMDDFLHQLKQLNKQARIEIEHITVTAQGDHAEVHAQFVNTENGRPRTKRVVYRAEVRNGQAKSIKLEDTK” showed a protease stability score of 0.176.
